Assay results as given in patent US20220153819A1.

Target: human GITR on Jurkat/hGITR/hCD20 cells (human) (UniProt Q9Y5U5)
Assay: flow cytometry on Jurkat/hGITR/hCD20 cells

Sequence of human GITR on Jurkat/hGITR/hCD20 cells (human) (Q9Y5U5 26-241): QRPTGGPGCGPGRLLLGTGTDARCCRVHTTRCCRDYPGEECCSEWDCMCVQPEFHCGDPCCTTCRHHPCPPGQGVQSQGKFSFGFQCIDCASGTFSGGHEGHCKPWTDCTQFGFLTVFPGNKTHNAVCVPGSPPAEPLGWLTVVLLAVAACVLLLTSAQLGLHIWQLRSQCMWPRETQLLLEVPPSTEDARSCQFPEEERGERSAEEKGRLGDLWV

REGN1932, IgG1 isotype control antibody was tested, and the Maximum MFI was 39900 MFI.
